In patent publication US20200087363A1 (IMMATICS BIOTECHNOLOGIES, published 2020) one finds peptide exchange yield data, which are given here for twelve molecules.

The assay addresses T1, HLA-B*44:05 (human).
T1 construct: also called peptide-receptive MHC class I molecule
Briefly: UV peptide exchange, anti-b2m ELISA. Put shortly: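 Peptide-receptive HLA-B*44:05 monomers after UV-induced exchange were diluted 100-fold and captured on streptavidin-coated plates for 1 h at 37 °C. Bound complexes were detected with 2 µg/ml HRP-anti-β2m (1 h, 37 °C) and TMB, read at 450 nm. β2m signal reflects peptide-stabilized complex yield.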
(ELISA stands for enzyme-linked immunosorbent assay.)

B1: ELVHMINW (peptide)
peptide: ELVHMINW
As to B1, the peptide exchange yield lay in the range of 20 to 50%.

B2: AELFLTKSF (peptide)
peptide: AELFLTKSF
For the molecule B2, the peptide exchange yield was greater than 75%.

B3: TELADLDAAW (peptide)
peptide: TELADLDAAW
In the case of B3, the peptide exchange yield is greater than 75%.

B4: SECVKSLSF (peptide)
peptide: SECVKSLSF
The molecule B4 gave a peptide exchange yield greater than 75%.

B5: YQENPRAAW (peptide)
peptide: YQENPRAAW
In turn, B5 gave a peptide exchange yield of 20 to 50%.

B6: MDELEEGESY (peptide)
peptide: MDELEEGESY
Molecule B6 registered a peptide exchange yield of 10 to 20%.

B7: EEIFKTLNY (peptide)
peptide: EEIFKTLNY
In turn, B7 registered a peptide exchange yield of 50 to 75%.

B8: EENIVAIGI (peptide)
peptide: EENIVAIGI
As for B8, the peptide exchange yield is 50 to 75%.

B9: QETNKVETY (peptide)
peptide: QETNKVETY
B9 came in with a peptide exchange yield of 50 to 75%.

B10: SEESAGPLL (peptide)
peptide: SEESAGPLL
In turn, B10 had a peptide exchange yield of 50 to 75%.

B11: SVISDSPRSW (peptide)
peptide: SVISDSPRSW
B11 displayed a peptide exchange yield of 50 to 75%.

B12: SEENTGKTY (peptide)
peptide: SEENTGKTY
In the case of B12, the peptide exchange yield was 50 to 75%.
